Results: the nanobody polyreactivity screen of Harvey et al. (2022)

Assay: yeast display, Sf9 membrane polyspecificity reagent, FACS + sequencing; frameworks hold sequencing errors
In short: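 Nanobodies from a synthetic yeast display library (Saccharomyces cerevisiae BJ5465), induced 36–48 hours with galactose, were stained 1 hour at 4 °C with 10% biotinylated, detergent-solubilized Sf9 membrane reagent, enriched on streptavidin microbeads, then FACS-sorted. Anti-HA (expression) and streptavidin (reagent binding) fluorescence set low and high (top ~1%) gates. Polyreactivity labels come from the gate of origin. Genes were colony-PCR amplified, MiSeq 2 × 250 sequenced and filtered by CDR length.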
In the case of “QVQLVESGGGLVQAGGSLRLSCAASGSTIWSNAMVWYRQAPGKERELVAVISGGTSTNYADSVKGRFTISRDNAKNTVYLQMNSLKPEDTAVFYCAADWGSYLILINDTDMDYWGQGTQVTVSS”, the “polyreactivity (PSR sort gate)” value is reported as “low polyreactivity”. For “QVQLVESGGGLVQAGGSLRLSCAASGSTIYDNAMGWYRQAPGKERELVAAITWSVGRTYYADSVKGRFTISRDNAKNTVYLQMNSLKPEDTAVYYCAARSQDRSYFQVFVSDTPYNYWGQGTQVTVSS”, the “polyreactivity (PSR sort gate)” value was “low polyreactivity”. For “QVQLVESGGGLVQAGGSLRLSCAASGSTIYGYAMGSYRQAPGKERELVAAISISGGGTYYADSVKGRFTISRDNAKNTVYIQMNSLKPEDTAVYYCARRYFWGQGTQVTVSS”, the “polyreactivity (PSR sort gate)” value was “low polyreactivity”. With “QVQLVESGGGLVQAGGSLRLSCAASGSTLAKYAMGWYRQAPGKERELVAAISWSGGRTYYADSVKGRFTISRDNAKNTVYLQMNSLKPEDTAVYYCAARARSSRTYHDDYWGQGTQVTVSS” the “polyreactivity (PSR sort gate)” value was “high polyreactivity”. For “QVQLVESGGGLVQAGGSLRLSCAASGSTLALYAMGWYRQAPGKERELVAVITSGGSTDYADSVKGRFTISRDNAKNTVYLQMNSLKPEDTAVYYCAAEGRPGKYSYVYWGQGTQVTVSS”, the “polyreactivity (PSR sort gate)” value was “low polyreactivity”. With “QVQLVESGGGLVQAGGSLRLSCAASGSTLATYTMGWYRQAPGKERELVAAISFGGSTYYADSVKGRFTISRDNAKNTVYLQMNSLKPEDTAVYYCAVYGDSYWGASYYSDGYWGQGTQVTVSS” the “polyreactivity (PSR sort gate)” value was “low polyreactivity”. For “QVQLVESGGGLVQAGGSLRLSCAASGSTLDGNTMGWYRQAPGKERELVAAISRSGTSTYYADSVKGRFTISRDNAKNTVYLQMNSLKPEDTAVYYCNAEASDLYYVYLEYDYWGQGTQVTVSS”, the “polyreactivity (PSR sort gate)” value was “low polyreactivity”. For “QVQLVESGGGLVQAGGSLRLSCAASGSTLDRNTMGWYRQAPGKERELVAAITWSGGRTYYADSVKGRFTITRDNAKNTVYLQMNSLKPEDTAVYYCNKDYWKRPVDEYDYWGQGTQVTVSS”, the “polyreactivity (PSR sort gate)” value was “high polyreactivity”. For “QVQLVESGGGLVQAGGSLRLSCAASGSTLDYYAIGWYRQAPGKEREFVAGIDSAGSTNYADSVKGRFTISRDNAKNTVYLQMNSLKTGRYRGLYCNVGKTITTYAFPTFDYWGQGTQVTVSS”, the “polyreactivity (PSR sort gate)” value was “low polyreactivity”. For “QVQLVESGGGLVQAGGSLRLSCAASGSTLEPNAMGWYRQAPGKERELVAAITIGGSTYYADSVKGRFTISRDNAKNTVYLQMNSLKPEDTAVYYCAAKSTVQRRRHTNYDYWGQGTQVTVSS”, the “polyreactivity (PSR sort gate)” value was “high polyreactivity”. With “QVQLVESGGGLVQAGGSLRLSCAASGSTLFDYTMGWYRQAPGNVRELVAAISSSGITDYADSVKGRFTISRDNAQNTVYLQMNSLKPDETAVYYCNARSQKATRYDYWGQGTQVTVSS” the “polyreactivity (PSR sort gate)” value was “high polyreactivity”. With “QVQLVESGGGLVQAGGSLRLSCAASGSTLFTYAMGWYRQAPGKERELVAAITSSGSTYYADSVKGRFTISRDNAKNTVYFQMNSLKPEDTAVYYCAVPGYRYTKYYYWGQGTQVTVSS” the “polyreactivity (PSR sort gate)” value was “low polyreactivity”. In the case of “QVQLVESGGGLVQAGGSLRLSCAASGSTLGFNAMGWYRQAPGKEREFVAGISASGSSTYYADSVKGRFTISRDNAKNTVYLQMNSLKPEDTAVYYCAARASGGPYWSRGKYWGQGTQVTVSS”, the “polyreactivity (PSR sort gate)” value is reported as “high polyreactivity”. In the case of “QVQLVESGGGLVQAGGSLRLSCAASGSTLGVNAMGRYRQAPGKEREFVAAITGRGGNSYYADSVKGRFTISRDNAKNTVYLKMNSLKPEDTAVYYCAAERQPYRTSSYNYWGQGSQVTVSS”, the “polyreactivity (PSR sort gate)” value is reported as “high polyreactivity”. With “QVQLVESGGGLVQAGGSLRLSCAASGSTLGVYAMGWYRQAPGTERELVAAISSGGSTTYADSVKGRFTISRDNEKNTVYLQMNSLKPEDTAVYYCAADRYEGYVTWYWWGAYNYDYWGQGTQVTVSS” the “polyreactivity (PSR sort gate)” value was “high polyreactivity”. With “QVQLVESGGGLVQAGGSLRLSCAASGSTLGVYVMGWYRPAPGKERELVAAISRNGGSTYYADSVKGRFTISRDNAMNTVYLQMNSLKPEDTAVYYCAARTVGRKAGFDYWGQGTQVTVSS” the “polyreactivity (PSR sort gate)” value was “high polyreactivity”. In the case of “QVQLVESGGGLVQAGGSLRLSCAASGSTLGYYAMGWYRQAPGKERELVAAIRYSDGNTYYADSVKGRFTISRDNAKNTVYLQMNSLKPEDTAVYYCAARRGRSFRGVFYPFEYWGQGTQVTVSS”, the “polyreactivity (PSR sort gate)” value is reported as “high polyreactivity”. In the case of “QVQLVESGGGLVQAGGSLRLSCAASGSTLGYYTMGWYRQAPGKERELVAAISGSGVTTSYADSVKGRFTISRDTAKNTVYLQMNSLKPEDTAVYYCARRYRVGTTGGDYWGQGTQVTVSS”, the “polyreactivity (PSR sort gate)” value is reported as “high polyreactivity”. For “QVQLVESGGGLVQAGGSLRLSCAASGSTLIANAMGWYRQAPGKERELVAGITYRGGDITTYADSVKGSFTNSSDNANNTVYLQINTLKPEDTAVYYCAAPVVWPTWARGGYWGQGTQVTVSS”, the “polyreactivity (PSR sort gate)” value was “low polyreactivity”. With “QVQLVESGGGLVQAGGSLRLSCAASGSTLIIYAMGWYRQAPGKERELVATISWSGGNTYYADSVKGRFTISRDNAKYTVYLQMNSLKPEDTAVYYCAARWYYYPLLYDYWGQGTQVTVSS” the “polyreactivity (PSR sort gate)” value was “low polyreactivity”. For “QVQLVESGGGLVQAGGSLRLSCAASGSTLIRNVMGWYRQAPGKESELDAAITWSGASTYYADSVKGRFTISRDNAKNTVYLQMNSLKPEDTAVYYCAARALNWSRVARYNYWGQGTQVTVSS”, the “polyreactivity (PSR sort gate)” value was “high polyreactivity”. For “QVQLVESGGGLVQAGGSLRLSCAASGSTLITNDMGWYRQAPGKERELVATITYGTGSTYYADSVKGRFTISRDNAKNTVYLQMNSLKPEDTAVYYCNARRNYPKDSDGYDYWGQGTQVTVSS”, the “polyreactivity (PSR sort gate)” value was “low polyreactivity”. With “QVQLVESGGGLVQAGGSLRLSCAASGSTLLIYVMGWYRQAPGKERELVAAISKRSGSTYYADSVKGRFTISRDNAKNTVYLHMNSLKPEDTAVYYCATRPYVRWYDYWGQATQVTVSS” the “polyreactivity (PSR sort gate)” value was “high polyreactivity”. In the case of “QVQLVESGGGLVQAGGSLRLSCAASGSTLLTYTMGWYRQAPGKERELVASITTSGGSTYYADSVKGRFTSSRDNAKNTVYLQMNSLKPEDTAVYYWGQGTQVTVSS”, the “polyreactivity (PSR sort gate)” value is reported as “low polyreactivity”. With “QVQLVESGGGLVQAGGSLRLSCAASGSTLLWNTMGWYRQAPGKERELVAAISITGSTNYADSVKGRFTISRDNEKNTVYLQMNSLKPEDTAVYYCAAPYGLPWWYGSWGQGTQVTVSS” the “polyreactivity (PSR sort gate)” value was “low polyreactivity”. With “QVQLVESGGGLVQAGGSLRLSCAASGSTLNRNVMGWSRQAPGKERQMVAVITYGVGSTYYADSVKGRFTISRDNAKNTHYIQMNSLKPEDTAVYYCNKDPLVFDYWGQGTQVTVSS” the “polyreactivity (PSR sort gate)” value was “low polyreactivity”. With “QVQLVESGGGLVQAGGSLRLSCAASGSTLNYYAMGWYRQAPGKERELVATIDKSGGSTRYADSVKGRFTISRDNAKNTVYLQMNSLKPEDTAVYYCAVDSPYQHDDYWGQGTQVTVSS” the “polyreactivity (PSR sort gate)” value was “low polyreactivity”. In the case of “QVQLVESGGGLVQAGGSLRLSCAASGSTLPTNAMLWYRQAPGKEREFVAAISDNGGSTYYADSVKGRFTISRDNAKNTVYLQMNSLKPEDTAVYYCAADNFGPEFYYWGQGTQVTVSS”, the “polyreactivity (PSR sort gate)” value is reported as “low polyreactivity”. For “QVQLVESGGGLVQAGGSLRLSCAASGSTLPYYAMGWYRQAPGKERELVAAITSSGGDTYYADSVKGRFTISRDNAKNTVYFQMNSLKPEDTAVYYCAKSYSARSTVRKLFYFAYDYWGQGTQVTVSS”, the “polyreactivity (PSR sort gate)” value was “low polyreactivity”. For “QVQLVESGGGLVQAGGSLRLSCAASGSTLPYYAMGWYRQAPGKEWELVAAITSSGGDTYYADSVKGRFTISRDNAKNTVYLQMNSLKTEDTAVYYCAKSYSARSTVRKLFYFAYDYWGQGTQVTVSS”, the “polyreactivity (PSR sort gate)” value was “low polyreactivity”. For “QVQLVESGGGLVQAGGSLRLSCAASGSTLQNNAMGRYRQAPGKERELVAAISVSDGITYYADSVKGRFTISRDNAKNTVYLQMNSLKPEDTAVYSFAADYSSPWQAVQGDDYWGQGTQVTVSS”, the “polyreactivity (PSR sort gate)” value was “low polyreactivity”. In the case of “QVQLVESGGGLVQAGGSLRLSCAASGSTLQRYAMGWYRQAPGKEREFVAAINWSGSNTYYADSVKGRFTISRDNAKNTVYLQMNSLKPEDTAVYYCATNTWLFGGNYWGQGTQVTVSS”, the “polyreactivity (PSR sort gate)” value is reported as “high polyreactivity”. With “QVQLVESGGGLVQAGGSLRLSCAASGSTLQSYAMGWYSQAPGKERELVAGIRISGGNTRYADSVKGRFTISRDNAKNTVYLQMNSLKPEDTAVYYCAALTGFYNLRPYGYWGQGTQVTVSS” the “polyreactivity (PSR sort gate)” value was “high polyreactivity”. In the case of “QVQLVESGGGLVQAGGSLRLSCAASGSTLRAYAMGWYRQAPGKERELVAAITRRGGSTSYADSVKGRFTISRDNAKNTVYLQMNSLKPEDTAVYYCARVVVTRHPKSIEYDYWGQGTQVTVSS”, the “polyreactivity (PSR sort gate)” value is reported as “high polyreactivity”. In the case of “QVQLVESGGGLVQAGGSLRLSCAASGSTLRGNAMGWYRPAPGKERELVAAITGRGTRTYYADSVKGRFTISRDNAKNTVYLQMNSLKPEDTAVYYCAAKGRLYPGWEYYYWGQGTQVTVSS”, the “polyreactivity (PSR sort gate)” value is reported as “high polyreactivity”. For “QVQLVESGGGLVQAGGSLRLSCAASGSTLRPYGMGWYRQATGKERELVPTIRSSSGRTYYADSVKGRFTISRDNAKNTVYLLMNSLKPDDTAVYYCNAKYVWYTQRDAYIYDYWGQGTQVTVSS”, the “polyreactivity (PSR sort gate)” value was “high polyreactivity”. In the case of “QVQLVESGGGLVQAGGSLRLSCAASGSTLRRNAMGWYRPAPGKERELVAAISGTGGSTYYADSVKGRFTISRDNAKNTVYLQMNSLKPEDTAVYYCAATGWYYDYDYWGQGTQVTVSS”, the “polyreactivity (PSR sort gate)” value is reported as “low polyreactivity”. In the case of “QVQLVESGGGLVQAGGSLRLSCAASGSTLRRYAMGWSRQAPGKERELVAAISGSGDSTYYADSVKGRFTISRDNAKNTVYLQMNSLKPEDTAVYYCNAVYAFNGYDYWGQGTQVTVSS”, the “polyreactivity (PSR sort gate)” value is reported as “low polyreactivity”. For “QVQLVESGGGLVQAGGSLRLSCAASGSTLRRYAMGWYRQAPGKERELVAAISGSGDSTYYADSVKGRFTISRDIAKNTVYLQMNSLKPEDTAVYYCNAVYAFNGYDYWGQGTQVTVSS”, the “polyreactivity (PSR sort gate)” value was “low polyreactivity”. For “QVQLVESGGGLVQAGGSLRLSCAASGSTLRSYAMGWYRQAPGKERELVAAIDWDGGRTYYADSVKGRFTISRDNAKNTVYLQMNSLKPEDTAVYYCNTSAGWSNGKDEGDFYSGFDYWGQGTQVTVSS”, the “polyreactivity (PSR sort gate)” value was “low polyreactivity”. In the case of “QVQLVESGGGLVQAGGSLRLSCAASGSTLRYNTMGWYRQAPGTERELVAAIRGSGSSTYYADSVKGRFTISRDNAKNTVYLQMNSLKPEDTAVYYCAARPRWYTYTRQEYDYWGQGTQVTVSS”, the “polyreactivity (PSR sort gate)” value is reported as “high polyreactivity”. In the case of “QVQLVESGGGLVQAGGSLRLSCAASGSTLSDKSIGWYRQAPGKEMELVASISWSGGTYYADSVKGRFTISRDNAKNTVYLQMNSLKPEDTAVYYCAAYIYYNYSRQYLYDYWGQGTQVTVSS”, the “polyreactivity (PSR sort gate)” value is reported as “low polyreactivity”. With “QVQLVESGGGLVQAGGSLRLSCAASGSTLSFYAMGWYRQAPGKERELVAAISYSTGTTYYADSVKGRFTISRDNAKNTVYLQMNSLKPEDTAVYYCAVYWQHNSTRYYYWGQGTQVTVSS” the “polyreactivity (PSR sort gate)” value was “high polyreactivity”.
